This data set in a line: label from the status in PepcDB records.
For the sequence “MKMTAKMRREFPTAFLLLFLVPVMIPVGEAVWLDVPPTGTKCVSEEIQSNVVVLADYLIISEDHEVMPTISVKVTSPYGNNLHNMENVTHGQFAFTTQESGNYLACFWADEKSHGNKNVSINIDWRTGIAAKDWASIAKKEKIEGVELEIRKLEGAVEAIHENILYLRNREADMRTMSEKTNSRVAWYSIMSLGVCIAVSGFQVLYLKQYFEKKKLI”, the protein production result is given as “failed”.

Turning to “MKNDDLLMQIMMLDFAVQDSALFIDTHPCDKEAMNYFNEAATRLKAAKKEYQKQGHALVNREVGAYQNDYLSAPWPWVGDHKCGCTKNVCNTL”, the protein production entry is given as “failed”.

With “MKNFNDEEHNSQLTDEVLPEPEDARVIANILKAVGVESFDTRVVAQLVEFVYKYIGEVLELSKTFAQYAEREDIRQDDVKLAISSLLSKSFTQPPSRDVLLQLCRERNAVPLPVVDTYVGIQLPPKEFQLTTRNYQLKRKTTTESVASQELSEATGNISIGESSLQPNEEESNTMNT”, the protein production result was “failed”.

“MKNGERARAGHGSPAAPGPTAGPGPAPAPGPTVVGREAEIAEIRSRIAADRSHSSVLIVEGDPGAGKSVLLDLAVRLTRGTGQRVLRAVGSESEASLAFAGLHQMLRPVLDDLGGLPARQRSALRTALGLAEDAEDAADTPDALLVGLAVLTLVSDLSEPAPLLVVVDDAQWIDRASLDVLSFLARRMAGEPVTLLMGVRAAAVLPGFDKGYERLEIGPLSGDAANRLLDEQPKRPTGRTRARILREAAGNPLALVELARATADREPEGSGVEGPLPVTDRLEGIFARHVRHLPEATRRALLLLAAADAADAPAAARGLPEAADTVWAPAERAGLVRQDGTGVSFRHPLVRSAVYHAAPFEQRRRAHLALARQLGEEPDRRAWHLAAAAVRPDEQVSAALRETAGRARRRGGHAAAAAALERAAELSPHRADQARLLADAADTAVFTGQLGWVEHLAAGARERSDDPALIGRAALATGRLLTLGPHHTAAFALLSRVADEAAATRSPRLLDALAAAAVVRYYSGEESQRQRIEALLADVPDSAAGGALRAWVLAVSDPSGAGASLAPALPRLIAAAKGEAGSLTALAVVAWLLDRTPLAARTFDEAFGRWQAHGPLPAGLACAAGWAYLEQGRWADARSVAAEIAEVASGAGLDHAEACARTLDATVLALLGEPAEARGSAERALALVAPLESRSVAVLARRALGLAAVAEGDYDSAYAQFRAAFTEDGDLVHYHVSPTVLAELAAAAVRRGHREPAARLLERSARHLGPGMSARLFLLVERGRALLAEPERAERHFRAALAGEAGEQWPFERAQTRLDYGEWLRRQRRVAEARPLLTGALDTFRRLGARPWIDRAKAELRAAGIEADAAAPGALTELSPQQQQIVRLAAHGLTNREIGERLFLSPRTVGSHLYRVFPKLGITARAQLRDLLDDALQATGSAQ”: the protein production entry is given as “failed”.

Turning to “MKNGGVFVSIALLVTITLVMGVIFVNGWTDAPNAIATAVSTRVLKPNVAIWMAVVMNFLGALVMTFFNAQVAETISNIVSFDANGNASQVALAASLFSIVVWAVAAWYFGIPTSESHALIAGLTGSAMALGGLGAVNGSEWIKVLVGLVVSTVMGFGGGYLIAKLVVKAFSAVPRRKANKFFTVGQAFGAGANAFLHGAQDGQKFMGVFMLVLFYNNLVEKTGGGFVIPLWVMVLCSITMGIGTSVGGMRIIKSVGMDMVKLERYQGFTADLSTAICLFLASAFGIPVSTTHTKTTAIMGVGASKRISSVDWRIVKEMLIAWILTFPGCGLIAYVMSKLFIAIF”, the protein production result is on record as “failed”.

Consider “MKNKGLIATLILLTILVVGELFYNKSEKRLNLSEKQVVKIGILQYVTHDALDAIEKGVEDGLAQEGYKGKKVKLTVLNAEADQSKIQAMSKQLVNHHNDILIGIATPSAQGLAASTKDTPIIMGAVSDPLGAKLVTNMKKPTTNVTGLSNVVPTKQTVQLIKDITPNIKRIGILYASSEDNSVSQVTEFTKYAQKAGLEVLKYSVPSTNEIKTSMSVMTKKVDAVFVPQDNTIASAFRTVIVAANQANIPVYSSVDTMVEQGSIASVAQSQYGLGLETAKQAIKVLRGKPVKDVPVKVIDTGKPSLNLKAAKHLGIKIPKKIMKQAEITVKVDD”, for which the protein production entry was “failed”.

On to “MKNKLAITKLSNNVFLLLCTALTFTPIANAAEVIELTIAEPSALKPDFIGYNANMMSAMSTNPWDRTELTQLYKNTGTSIIRYPGGTIANNFDWPTGNQIKINSSGEESLGSYDYKISNFKTGYQNAGFEPIFVVNLLTRDLQHTLDGLADATAKSLPINRIELGNEFFLKDEAYVDMFPSGQDYVSKADIWTDAIKAIYPHVEIAYVSTMKKDPRSLEWNEKISQCTKCDAIIIHTYTRSELNPVLPADKSTSYFGTNEEQNQQWQQFITNSGVDIMLAQPFEAWHGYTSLNNLPSDKKIWITEFNMKDGTGPTRNTWAHALFNANQLQSFLTDGRVEIALLHNLITGAKSGSHYLGNTFSGLTIDHGQGDLSSQKYSLSAGGIAMRAFGSVLKGMDTIAKINLSDTPTVSPTGYADYDAIYGWQGSNSANEEQRYLLINTSSVSYTVNTENLTTSNKSVRQYWTKPQTFIHSEEVLSGGMVNSLPTLLKLPAYSITVIGETAIELPSNYQQTLTLTATDDHFTKEANPNGKGQPTASQININNSEGDQSRPHIKFNTNQVKGSIESVTLKVYSESVTDTVSAHKINNEWDEYELTWNTMPTLGEFINSASADKNAWLEINVTASLLKSDSLLSFALTNSLTSLNKFSSKEGNKAPELIITTSNAVINVADTNITKDDANILQYYSNSLADAVSDDDNDKLSFYKTSGPSWLMLWSNGKIEGTPTADDIGENTFAIKVSDNTGQASATTALNLTINVISDAPTNAAPVWNNIQNILQQATENISYNSNILALATDADNDALIFAKVSGPDWLSLSDAGEVTGTATNSDIGENNVIVSVTDGTNNSNEFINNELIITVTAEIAVEPINNAPTWSNENIALELATQEQAYTNNIMTFTNDLDGDILVFAKVSGPQWLTLSEAGDITGTPSGNDIGENIFILSVTDSDSDTAQVINNTFTIIVSTKPEPEPTPKTEEDNSEGGSISFSLLLLCFLRVFTMRNKF”, for which the protein production result was “failed”.

Take “MKNKQSKSLLIKSMALTGLFTISACANEELADTLLTNTNIYGHNNATSLAIKDGKIVYIGDEQNAMNHVSNKTQVIDLKGGYLLPGFVDNHNHVFEAASEIGSDCLLDEDKDINGYIRSLRACKEELEEGEWLLGYGHELSQLMQDNDTSPLAILDEIFPNNPVIIMEQTSHSMWVNSLALAEAGITIHSKEPQGGKILKDKTTGKLLGILLDNAGDLLMEQAWKNQPNLAEANYQGLLNGLAQASKHGITTIGDGRLYWKRGWLETWLTAEKNQALTARVSLRPWVYPADEANEQLAFFKKIKSNDKQRLIQINQVKIYSDGIIINGTASTLDPYDWSYTPQIPHGLEYIPATKMAWWLSELNKIGYGAHIHAIGDAGVRNTLNAIETLRAQGATTAYSMTHLEMVSAQDIKRFAPLRVDADFQLGSDYIAEQDHDWAIPFIGKQRAHALLPINAILNTGANVTLSSDWNVNDINPLVGIANAVYLKNMGIADIHQAIAAYTINPAQALGLDDITGTLEVGKSADIVMLERDITQSTPKQIANTRVLMTWLEGEVVYDEQTE”: the protein production entry is reported as “failed”.

Regarding “MKNLFLTSSFKDVVPLFTEFESNLQGKTVTFIPTASTVEEVTFYVEAGKKALESLGLLVEELDIATESLGEITTKLRKNDFIYVTGGNTFFLLQELKRTGADKLILEEIAAGKLYIGESAGAVITSPNIAYIQTMDSTKKAVNLTNYDALNLVDFSTLPHYNNTPFKEITQKIVTEYAGKSQIYPISNHEAIFIRGKEVITKRLS”, the protein production entry is “failed”.

For “MKNLIFIATTFITTISLTNIAQAANQEHIRQLLATKQCQNCDLSGAGLVMADLTGANLSGANLAGANLSRANLSGADLRGANLSGAGLFGVNLSEAKLGGANLAGADLRSTFLSNAEFTGAYLQGTNFQGALGIPLQIATPDEFYALGVAEAQKGNQQQAINYFNQAIASKPEYAGAYLARGIARYQLFDRQGAAQDAQTAEKLFTSQDNATGIQTAQAFIKELQTPYTEKLSAGKPSFFDFLGSLGSVLLQFLPF”, the protein production result was “failed”.

As to “MKNLKKKLLKLVKIFVIIFVCLAAFFVYIFIEPYWINEKTTTISDSDVPQNFEGKKIVFISDIHHGPYFERERVADLVRKVNELEPDIIILGGDYVSGDVGYIGACFEELSRLKADMGIFGVTGNHDEWTDYNLTVKCMENAGITVLSNRAEWLEIGDDKIKIAGVDWSTDWYFNSEPYVDPLIKDAEENDFVILVSHTPDLAEELTTDKVDLVLSGHTHGGQITFFGLWAPYVPSFYGQKYRTGIVKTDKTMALVSNGVGNTFLPIRFFARPQINIIILDHP”, the protein production result was “failed”.

Take “MKNMDEERKYGLYSLIIGLLCVIGIVMLNGLICYVLYIIAVPSLLYGIGAFIIPKTRRKDAGKLPFRGY”: the protein production entry was “failed”.

Regarding “MKNRETDSNVVTLYVTRHGKTILNTNHRAQGWADSPLVEKGVEVATNLGTGLKDIHFMNAYSSDSGRAIETANLVLKYSEQSKLKLEQRKKLRELNFGIFEGEKLDNMWDAVGKAAGVTSPEELLKFSIQEVIDLIRAADPTKQAEDWELFSTRIKAEIDKISEEAAKDGGGNVLVVVHGLLITTLIEMLDSSKTKLGVENASVTKIVYQDGIYTVESVGDMSYVAKGKESVEI”, the protein production result is on record as “not failed”.

Turning to “MKNSFFSKFTPKEPKFFPLLKQLSDVLSASSVLLVESMEHDLPTERADYYKQIKDMEREGDRLTHLIFDELSTTFITPFDREDIHDLASCMDDVIDGINSSAKRIVIYNPRPISESGKELSRLIHEEAINIGKAMDELETFRKNPKPLRDYCTQLHDIENQADDVYELFITKLFEEEKDCIELIKIKEIMHELEKTTDAAEHVGKILKNLIVKYS”, the protein production result was “not failed”.

In the case of “MKNTIDVENDSIIAFTGGRIFTMDSEQKHAETVVINGGCIAAVGDRSILKSFPNAKIRDLKGRVLLPAFIDSHNHLSSFGCFFPTWANLIGLTEKGSVLEEIQLQTRKKPGKGWIVGFGWFDAKIGGVDLTKNDLDEISSDRPVLLIQATFHQSVVNSRALELVGITRSTPDPRCGIILRESDGMPTGVLVECAQVPVFRLAMEADTGTLANLIEAHAKELLKFGITAVHDPGVTPAAEAAYQKLHSEERLPVSVLMMPHGETILDNQLGYRLHGPVTGVGDERLRVGPVKLFADGATEETVAFSLKIGGQTINSGNYRDDFEEMLFAATEKGFRVCVHSFGNVTTDAVLTAFENAVTRAPAGFEMRPRLEHVTLISTSQIKRLAAMGGCACIQPQFLSRAQNTKQVVLDDGKWYAYGDLVKGGVTVASGSDNPGGFMDARDPIEGSVMGSTMSDGAGNAIFPDQVLPFEQWLWMYTAGGAYAGGQEKERGMLKKGMVADLVVLEGNLDPKNPPVVAETWVAGKQVYDHRV”, the protein production entry is reported as “failed”.

Consider “MKNYKIILTALCFICIFSCSKTETKKSIKYKDGVYKSFANIKDDWGGTAEVEIKIEEGKIVECTFLSYEKNGNLKGPEYGKVDGVIKNMGLYKIAQASVLKAAEYGQKLIETQNIDDVDVIAGASISYKLFKDAVENALQGAMQNAKENLEHHHHHH”, for which the protein production entry is on record as “failed”.

Take “MKNYTLISPCFFGMEKMLAREITNLGYEIIKTEDGRITYKTDEFGIAKSNMWLRCAERVHLKIAEFEAKSFDELFENTKRINWSRYIPYGAQFPISKASSIKSKLYSTPDVQAIVKKAIVESLKKSYLEDGLLKEDKEKYPIFVFIHKDKVTISIDTTGDALHKRGYREKANKAPIRETLAAGLIYLTPWKAGRVLVDPMCGSGTILIEAAMIGINMAPGLNREFISEKWRTLDKKIWWDVRKDAFNKIDNESKFKIYGYDIDEESIDIARENAEIAGVDEYIEFNVGDATQFKSEDEFGFIITNPPYGERLEDKDSVKQLYKELGYAFRKLKNWSYYLITSYEDFEYEFGQKADKKRKLYNGMLKTNFFQYPGPKPPRNNK”: the protein production result was “not failed”.

For the sequence “MKPENFTSEKIPASLDEVSLNYFAHDGNKREYLTYIPSGYSHTIEAPVILNFHGFGGTASGQLALSDWRDLAEKHGIILIYPQGLELQKGGSHWNPDPVSSDSKSISDDLGFVRRLLKRISKNYSIDKSRVYATGYSNGAGMAYGLAHHMPDLIAGIAPVSGLMNDEYLSTTSGGSPVGLISFNGEEDWVRPVNGINGYLASVADISSHWARENSSTQSIAEQFAQANGDRIERTSYSRDDGLTTVEQYLVDRGGHEWFDLDIEGKDLNQLAWQFLSRLRKQD”, the protein production result is “failed”.
